Residue numbers refer to the chain shown, from its start.
Columns and labels:
Experiment in all cases: Western blot of culture supernatant (non-reducing SDS-PAGE) probed with 3F7 mAb, anti-human IgG-FITC
W420R = target: T1, W420R
T1 construct: also called Mu-FXII W420R mutant with C-terminal 8xHis-tag; mutant d)
T1 single chain: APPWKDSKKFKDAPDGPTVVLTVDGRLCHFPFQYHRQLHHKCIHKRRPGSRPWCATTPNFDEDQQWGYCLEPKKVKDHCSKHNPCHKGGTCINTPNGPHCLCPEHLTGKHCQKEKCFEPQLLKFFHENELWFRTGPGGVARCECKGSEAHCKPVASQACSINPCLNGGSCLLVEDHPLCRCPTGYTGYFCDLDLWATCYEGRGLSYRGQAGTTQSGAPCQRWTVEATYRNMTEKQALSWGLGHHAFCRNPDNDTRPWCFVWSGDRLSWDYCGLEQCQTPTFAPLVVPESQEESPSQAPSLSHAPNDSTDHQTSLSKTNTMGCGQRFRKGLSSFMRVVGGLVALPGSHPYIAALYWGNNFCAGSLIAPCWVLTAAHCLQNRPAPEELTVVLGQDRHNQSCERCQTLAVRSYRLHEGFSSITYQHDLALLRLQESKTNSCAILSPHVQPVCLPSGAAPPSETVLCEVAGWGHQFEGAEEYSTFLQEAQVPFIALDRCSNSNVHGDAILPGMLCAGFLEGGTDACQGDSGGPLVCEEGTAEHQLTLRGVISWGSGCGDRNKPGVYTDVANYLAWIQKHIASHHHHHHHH
Protocol: (§1) Proteins were then transferred electrophoretically onto nitrocellulose filters and blocked for 1 hour in 5% Milk powder in Tris-buffered saline with 0.05% Tween-20 (TTBS). Filters were then incubated for 1 hour with either 3F7 mAb or an anti-His mAb 3H3 (both at […] in TTBS with 5% Milk powder), washed thoroughly with TTBS, then incubated for a further hour with anti-human IgG-FITC or anti-mouse IgG-FITC, respectively (Millipore, USA; both at 0.25 mg/ml in TTBS with 5% Milk powder). Following further washing of membranes in TTBS, Ab-FITC bound proteins were visualized using a Typhoon variable mode analyzer (GE Healthcare, USA).

G472S = target: T2, G472S
T2 construct: also called Mu-FXII G472S mutant with C-terminal 8xHis-tag; mutant k)
T2 single chain: T1 single chain with R401W, G453S
Protocol: as §1

T538A = target: T3, T538A
T3 construct: also called Mu-FXII T538A mutant with C-terminal 8xHis-tag; mutant m)
T3 single chain: T1 single chain with R401W, T519A
Protocol: as §1

S452G = target: T4, S452G
T4 construct: also called Mu-FXII S452G mutant with C-terminal 8xHis-tag; mutant i)
T4 single chain: T1 single chain with R401W, S433G
Protocol: as §1

Measured: binding result

B1: monoclonal antibody 3F7 (fully human IgG4/lambda) (antibody, V domains shown)
VH: EVQLLESGGGLVQPGGSLRLSCAASGFTFSKYIMQWVRQAPGKGLEWVSGIRPSGGTTVYADSVKGRFTISRDNSKNTLYLQMNSLRAEDTAVYYCARALPRSGYLISPHYYYYALDVWGQGTTVTVSS
VL: QSELTQPPSASGTPGQRVTISCSGSSSNIGRNYVYWYQQVPGTAPKLLIYSNNQRPSGVPDRFSGSKSGTSASLVISGLRSEDEADYYCAAWDASLRGVFGGGTKLTVLG
notes: also called 3F7 mAb; MAb 3F7
binds: all assays above

— patent US20200062863A1 (CSL BEHRING, published 2020)
